Reference: patent US20150299281A1 (ZEALAND PHARMA A S, published 2015)
Numbered stars: 1 amine (or outer) side, 2 acyl side, 3 side chain; on linkers, the order of the positions; unused ones are H or OH. Square brackets hold non-standard residues; d marks the D form. Side chains are listed from the residue outwards. * marks the point of attachment. γGlu = O=C(O)[C@H](CCC(=O)[*:2])N[*:1]; Palmitoyl = CCCCCCCCCCCCCCCC(=O)*; Aib = CC(C)(N)C(=O)O

T1: human GIP receptor (human, UniProt P48546 22-466)
T1 sequence (looked up): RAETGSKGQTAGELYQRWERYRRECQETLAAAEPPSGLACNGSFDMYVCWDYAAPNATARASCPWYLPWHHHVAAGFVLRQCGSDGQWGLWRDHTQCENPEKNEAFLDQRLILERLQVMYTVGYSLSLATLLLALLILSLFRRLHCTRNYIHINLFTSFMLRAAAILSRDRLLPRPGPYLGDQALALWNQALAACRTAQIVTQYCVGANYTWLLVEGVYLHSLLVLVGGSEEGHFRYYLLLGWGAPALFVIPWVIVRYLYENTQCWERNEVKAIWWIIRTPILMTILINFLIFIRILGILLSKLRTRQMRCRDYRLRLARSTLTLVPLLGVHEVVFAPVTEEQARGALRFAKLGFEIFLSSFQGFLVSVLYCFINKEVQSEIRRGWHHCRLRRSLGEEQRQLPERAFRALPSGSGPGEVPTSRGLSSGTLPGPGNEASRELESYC

B1: Compound 34 (peptide)
peptide: H-Y[Aib]EGTFTSDYSIYLDEK([γGlu-Palmitoyl])AAKEFIEWLESA-NH2
SMILES: CCCCCCCCCCCCCCCC(=O)N[C@@H](CCC(=O)NCCCC[C@H](NC(=O)[C@H](CCC(=O)O)NC(=O)[C@H](CC(=O)O)NC(=O)[C@H](CC(C)C)NC(=O)[C@H](Cc1ccc(O)cc1)NC(=O)[C@@H](NC(=O)[C@H](CO)NC(=O)[C@H](Cc1ccc(O)cc1)NC(=O)[C@H](CC(=O)O)NC(=O)[C@H](CO)NC(=O)[C@@H](NC(=O)[C@H](Cc1ccccc1)NC(=O)[C@@H](NC(=O)CNC(=O)[C@H](CCC(=O)O)NC(=O)C(C)(C)NC(=O)[C@@H](N)Cc1ccc(O)cc1)[C@@H](C)O)[C@@H](C)O)[C@@H](C)CC)C(=O)N[C@@H](C)C(=O)N[C@@H](C)C(=O)N[C@@H](CCCCN)C(=O)N[C@@H](CCC(=O)O)C(=O)N[C@@H](Cc1ccccc1)C(=O)N[C@H](C(=O)N[C@@H](CCC(=O)O)C(=O)N[C@@H](Cc1c[nH]c2ccccc12)C(=O)N[C@@H](CC(C)C)C(=O)N[C@@H](CCC(=O)O)C(=O)N[C@@H](CO)C(=O)N[C@@H](C)C(N)=O)[C@@H](C)CC)C(=O)O
B2: Compound 37 (peptide)
peptide: H-Y[Aib]EGTFTSDYSIYLEKKAAKDFVEWLLSA-NH2
SMILES: CC[C@H](C)[C@H](NC(=O)[C@H](CO)NC(=O)[C@H](Cc1ccc(O)cc1)NC(=O)[C@H](CC(=O)O)NC(=O)[C@H](CO)NC(=O)[C@@H](NC(=O)[C@H](Cc1ccccc1)NC(=O)[C@@H](NC(=O)CNC(=O)[C@H](CCC(=O)O)NC(=O)C(C)(C)NC(=O)[C@@H](N)Cc1ccc(O)cc1)[C@@H](C)O)[C@@H](C)O)C(=O)N[C@@H](Cc1ccc(O)cc1)C(=O)N[C@@H](CC(C)C)C(=O)N[C@@H](CCC(=O)O)C(=O)N[C@@H](CCCCN)C(=O)N[C@@H](CCCCN)C(=O)N[C@@H](C)C(=O)N[C@@H](C)C(=O)N[C@@H](CCCCN)C(=O)N[C@@H](CC(=O)O)C(=O)N[C@@H](Cc1ccccc1)C(=O)N[C@H](C(=O)N[C@@H](CCC(=O)O)C(=O)N[C@@H](Cc1c[nH]c2ccccc12)C(=O)N[C@@H](CC(C)C)C(=O)N[C@@H](CC(C)C)C(=O)N[C@@H](CO)C(=O)N[C@@H](C)C(N)=O)C(C)C
B3: Compound 38 (peptide)
peptide: H-Y[Aib]EGTFTSDYSIYLEKKAAHDFVEWLLSA-NH2
SMILES: CC[C@H](C)[C@H](NC(=O)[C@H](CO)NC(=O)[C@H](Cc1ccc(O)cc1)NC(=O)[C@H](CC(=O)O)NC(=O)[C@H](CO)NC(=O)[C@@H](NC(=O)[C@H](Cc1ccccc1)NC(=O)[C@@H](NC(=O)CNC(=O)[C@H](CCC(=O)O)NC(=O)C(C)(C)NC(=O)[C@@H](N)Cc1ccc(O)cc1)[C@@H](C)O)[C@@H](C)O)C(=O)N[C@@H](Cc1ccc(O)cc1)C(=O)N[C@@H](CC(C)C)C(=O)N[C@@H](CCC(=O)O)C(=O)N[C@@H](CCCCN)C(=O)N[C@@H](CCCCN)C(=O)N[C@@H](C)C(=O)N[C@@H](C)C(=O)N[C@@H](Cc1c[nH]cn1)C(=O)N[C@@H](CC(=O)O)C(=O)N[C@@H](Cc1ccccc1)C(=O)N[C@H](C(=O)N[C@@H](CCC(=O)O)C(=O)N[C@@H](Cc1c[nH]c2ccccc12)C(=O)N[C@@H](CC(C)C)C(=O)N[C@@H](CC(C)C)C(=O)N[C@@H](CO)C(=O)N[C@@H](C)C(N)=O)C(C)C
B4: Compound 33 (peptide)
peptide: H-Y[Aib]EGTFTSDYSIYLDKK([γGlu-Palmitoyl])AQRAFVEWLLAQGPSSGAPPPS-NH2
SMILES: CCCCCCCCCCCCCCCC(=O)N[C@@H](CCC(=O)NCCCC[C@H](NC(=O)[C@H](CCCCN)NC(=O)[C@H](CC(=O)O)NC(=O)[C@H](CC(C)C)NC(=O)[C@H](Cc1ccc(O)cc1)NC(=O)[C@@H](NC(=O)[C@H](CO)NC(=O)[C@H](Cc1ccc(O)cc1)NC(=O)[C@H](CC(=O)O)NC(=O)[C@H](CO)NC(=O)[C@@H](NC(=O)[C@H](Cc1ccccc1)NC(=O)[C@@H](NC(=O)CNC(=O)[C@H](CCC(=O)O)NC(=O)C(C)(C)NC(=O)[C@@H](N)Cc1ccc(O)cc1)[C@@H](C)O)[C@@H](C)O)[C@@H](C)CC)C(=O)N[C@@H](C)C(=O)N[C@@H](CCC(N)=O)C(=O)N[C@@H](CCCNC(=N)N)C(=O)N[C@@H](C)C(=O)N[C@@H](Cc1ccccc1)C(=O)N[C@H](C(=O)N[C@@H](CCC(=O)O)C(=O)N[C@@H](Cc1c[nH]c2ccccc12)C(=O)N[C@@H](CC(C)C)C(=O)N[C@@H](CC(C)C)C(=O)N[C@@H](C)C(=O)N[C@@H](CCC(N)=O)C(=O)NCC(=O)N1CCC[C@H]1C(=O)N[C@@H](CO)C(=O)N[C@@H](CO)C(=O)NCC(=O)N[C@@H](C)C(=O)N1CCC[C@H]1C(=O)N1CCC[C@H]1C(=O)N1CCC[C@H]1C(=O)N[C@@H](CO)C(N)=O)C(C)C)C(=O)O
B5: Compound 4 (peptide)
peptide: H-Y[Aib]EGTFISDYSIYLEKIAAKEFVNWLLAQK-NH2
B6: Compound 35 (peptide)
peptide: H-Y[Aib]EGTFTSDYSIYLDKK([γGlu-Palmitoyl])AQRAFVNWLLA[Aib]KPSSGAPPPS-NH2
SMILES: CCCCCCCCCCCCCCCC(=O)N[C@@H](CCC(=O)NCCCC[C@H](NC(=O)[C@H](CCCCN)NC(=O)[C@H](CC(=O)O)NC(=O)[C@H](CC(C)C)NC(=O)[C@H](Cc1ccc(O)cc1)NC(=O)[C@@H](NC(=O)[C@H](CO)NC(=O)[C@H](Cc1ccc(O)cc1)NC(=O)[C@H](CC(=O)O)NC(=O)[C@H](CO)NC(=O)[C@@H](NC(=O)[C@H](Cc1ccccc1)NC(=O)[C@@H](NC(=O)CNC(=O)[C@H](CCC(=O)O)NC(=O)C(C)(C)NC(=O)[C@@H](N)Cc1ccc(O)cc1)[C@@H](C)O)[C@@H](C)O)[C@@H](C)CC)C(=O)N[C@@H](C)C(=O)N[C@@H](CCC(N)=O)C(=O)N[C@@H](CCCNC(=N)N)C(=O)N[C@@H](C)C(=O)N[C@@H](Cc1ccccc1)C(=O)N[C@H](C(=O)N[C@@H](CC(N)=O)C(=O)N[C@@H](Cc1c[nH]c2ccccc12)C(=O)N[C@@H](CC(C)C)C(=O)N[C@@H](CC(C)C)C(=O)N[C@@H](C)C(=O)NC(C)(C)C(=O)N[C@@H](CCCCN)C(=O)N1CCC[C@H]1C(=O)N[C@@H](CO)C(=O)N[C@@H](CO)C(=O)NCC(=O)N[C@@H](C)C(=O)N1CCC[C@H]1C(=O)N1CCC[C@H]1C(=O)N1CCC[C@H]1C(=O)N[C@@H](CO)C(N)=O)C(C)C)C(=O)O

What follows are binders tested against T1, human GIP receptor (assay: cell-based or functional assay).
With B1 the “EC50, cAMP induction in HEK293 cells expressing human GIP R” value was 0.045 nM.
B2 was tested, and the “EC50, cAMP induction in HEK293 cells expressing human GIP R” value was 0.0097 nM.
For B3, the “EC50, cAMP induction in HEK293 cells expressing human GIP R” value was 0.007 nM.
In the case of B4, the “EC50, cAMP induction in HEK293 cells expressing human GIP R” value is reported as 0.035 nM.
In the case of B5, the “EC50, cAMP induction in HEK293 cells expressing human GIP R” value is reported as 0.022 nM.
With B6 the “EC50, cAMP induction in HEK293 cells expressing human GIP R” value was 0.028 nM.

These binders were tested against human GLP-1 receptor (human, UniProt P43220 24-463) (assay: cell-based or functional assay).
B1 was tested, and the “EC50, cAMP induction in HEK293 cells expressing human GLP-1 R” value was 0.031 nM.
B2 was tested, and the “EC50, cAMP induction in HEK293 cells expressing human GLP-1 R” value was 0.018 nM.
B3 was tested, and the “EC50, cAMP induction in HEK293 cells expressing human GLP-1 R” value was 0.018 nM.
For B4, the “EC50, cAMP induction in HEK293 cells expressing human GLP-1 R” value was 0.031 nM.
With B5 the “EC50, cAMP induction in HEK293 cells expressing human GLP-1 R” value was 2.6 nM.
B6 was tested, and the “EC50, cAMP induction in HEK293 cells expressing human GLP-1 R” value was 0.022 nM.
